Paper doi:10.1101/2020.06.30.179986 (bioRxiv, 2020)

T1: Hfp N-terminal RRMs (half pint, PUF60 homolog) (UniProt Q8T6B9 110-326)
T1 sequence: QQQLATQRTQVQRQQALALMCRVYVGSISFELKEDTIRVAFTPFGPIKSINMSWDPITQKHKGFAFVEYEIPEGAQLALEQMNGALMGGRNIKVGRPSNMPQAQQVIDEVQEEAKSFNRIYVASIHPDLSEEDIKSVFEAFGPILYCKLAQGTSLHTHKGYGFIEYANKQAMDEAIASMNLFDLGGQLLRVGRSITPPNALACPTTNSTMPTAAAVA

B1: recombinant protein composed of the two N-terminal RNA Recognition Motifs (RRM) of Half pint (Hfp) (domain or fragment, Drosophila, UniProt Q8T6B9 110-326, looked up)
chain: T1 sequence

What was measured:
[1] = target: T1, Hfp N-terminal RRMs (half pint, PUF60 …); test: EMSA
[2] = target: the molecule itself; test: SDS-PAGE and Western blot

Binder | binding result [1] | stoichiometry N [2]
UCUUCCCCUC (ssRNA) [act57B PT] | binds | –
B1 | – | 2
UUUUUCUCUU (ssRNA) [Positive control (Drosophila consensus polypyrimidine-rich sequence)] | binds | –
UACGUACGUA (ssRNA) [Negative control scramble] | no binding | –
